Reference: patent US7696168 (TUFTS MEDICAL CENTER, dated 2010)
Where a chain is given by its changes, count along the chain named. The star is where a group is joined. Palmitoyl = CCCCCCCCCCCCCCCC(=O)*

Key:
Assay in all cases: cell-based or functional assay
PAR1 S309P mutant = biological target: T1, PAR1 S309P mutant (human, UniProt P25116 42-425)
T1 sequence (looked up): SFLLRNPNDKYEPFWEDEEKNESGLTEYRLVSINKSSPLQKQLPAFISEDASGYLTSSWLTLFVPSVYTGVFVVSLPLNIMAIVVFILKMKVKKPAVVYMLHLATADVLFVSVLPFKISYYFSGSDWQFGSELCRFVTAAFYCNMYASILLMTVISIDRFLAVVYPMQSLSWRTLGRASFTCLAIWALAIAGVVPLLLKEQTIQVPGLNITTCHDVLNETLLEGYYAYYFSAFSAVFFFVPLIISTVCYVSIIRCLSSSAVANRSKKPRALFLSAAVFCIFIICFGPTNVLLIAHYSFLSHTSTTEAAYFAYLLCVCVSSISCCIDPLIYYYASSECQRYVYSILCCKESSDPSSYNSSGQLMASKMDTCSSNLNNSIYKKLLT

murine PAR4 = biological target: T2, murine PAR4 (mouse, UniProt O88634 60-396)
T2 sequence (looked up): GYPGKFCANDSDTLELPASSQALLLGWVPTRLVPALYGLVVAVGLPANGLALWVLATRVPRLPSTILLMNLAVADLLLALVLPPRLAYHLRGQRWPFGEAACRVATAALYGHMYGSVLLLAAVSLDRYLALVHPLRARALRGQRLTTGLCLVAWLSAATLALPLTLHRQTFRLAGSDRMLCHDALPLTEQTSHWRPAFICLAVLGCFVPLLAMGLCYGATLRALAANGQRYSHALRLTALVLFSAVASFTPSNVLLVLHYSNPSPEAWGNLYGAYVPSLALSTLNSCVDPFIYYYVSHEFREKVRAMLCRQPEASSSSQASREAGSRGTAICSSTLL

MC4 receptor (MC4R) = MC4 receptor (MC4R) (human, UniProt P32245 1-332)
MC4 receptor (MC4R), sequence (P32245 whole entry): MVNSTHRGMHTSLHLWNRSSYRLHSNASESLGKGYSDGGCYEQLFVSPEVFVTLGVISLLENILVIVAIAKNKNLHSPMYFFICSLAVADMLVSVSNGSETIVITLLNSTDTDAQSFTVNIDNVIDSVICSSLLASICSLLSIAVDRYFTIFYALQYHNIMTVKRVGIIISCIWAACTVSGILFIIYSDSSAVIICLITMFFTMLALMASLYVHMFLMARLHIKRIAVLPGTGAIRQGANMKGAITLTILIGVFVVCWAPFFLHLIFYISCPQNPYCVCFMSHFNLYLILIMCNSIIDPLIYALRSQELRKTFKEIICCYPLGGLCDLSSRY

human PAR1 [1] = biological target: T3, human PAR1 (human, UniProt P25116 42-425)
T3 sequence (looked up): T1 sequence (looked up) with P268S

human PAR1 [2] = biological target: T3, human PAR1; remark: listed apart in the source
[3] = biological target: rat somatostatin receptor (SSTR2) (rat, UniProt P30680 1-369)
rat somatostatin receptor (SSTR2), sequence (P30680 whole entry): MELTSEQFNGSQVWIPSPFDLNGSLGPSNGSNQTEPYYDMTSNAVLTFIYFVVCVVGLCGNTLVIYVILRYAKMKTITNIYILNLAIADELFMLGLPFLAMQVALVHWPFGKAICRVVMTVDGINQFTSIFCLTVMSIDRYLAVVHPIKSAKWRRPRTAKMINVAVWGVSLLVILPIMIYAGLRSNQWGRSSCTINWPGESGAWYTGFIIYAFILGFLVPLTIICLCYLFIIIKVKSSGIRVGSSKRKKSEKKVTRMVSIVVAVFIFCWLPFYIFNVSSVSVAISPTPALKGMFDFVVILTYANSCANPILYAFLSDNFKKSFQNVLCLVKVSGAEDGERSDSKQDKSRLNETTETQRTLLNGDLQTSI

human PAR4 [4] = biological target: T4, human PAR4 (human, UniProt Q96RI0 48-385)
T4 sequence (looked up): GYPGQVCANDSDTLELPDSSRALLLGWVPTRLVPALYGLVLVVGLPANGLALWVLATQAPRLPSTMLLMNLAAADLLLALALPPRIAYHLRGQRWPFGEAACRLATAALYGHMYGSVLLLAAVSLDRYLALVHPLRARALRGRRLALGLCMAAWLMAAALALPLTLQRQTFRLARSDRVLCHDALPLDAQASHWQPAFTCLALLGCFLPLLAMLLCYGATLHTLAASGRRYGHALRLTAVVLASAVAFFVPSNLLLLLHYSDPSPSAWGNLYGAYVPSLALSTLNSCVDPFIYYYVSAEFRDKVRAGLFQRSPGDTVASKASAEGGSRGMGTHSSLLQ

human PAR4 [5] = biological target: T4, human PAR4; remark: listed apart in the source
[6] = biological target: T5, human cholecystokinin A receptor (CCKA) (human, UniProt P32238 1-428)
T5 sequence (looked up): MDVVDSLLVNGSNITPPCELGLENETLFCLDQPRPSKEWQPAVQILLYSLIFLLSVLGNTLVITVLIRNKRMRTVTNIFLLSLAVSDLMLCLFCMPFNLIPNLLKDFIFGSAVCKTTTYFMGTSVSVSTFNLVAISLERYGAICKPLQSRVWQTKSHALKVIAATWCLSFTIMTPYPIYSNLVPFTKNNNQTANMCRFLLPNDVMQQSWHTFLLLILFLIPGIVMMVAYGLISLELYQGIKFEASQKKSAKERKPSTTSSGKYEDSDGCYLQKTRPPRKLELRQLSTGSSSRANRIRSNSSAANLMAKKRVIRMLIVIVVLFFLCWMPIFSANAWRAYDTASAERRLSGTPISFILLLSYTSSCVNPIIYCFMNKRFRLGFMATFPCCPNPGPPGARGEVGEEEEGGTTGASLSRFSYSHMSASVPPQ

thrombin (enzyme) was tested. Which loss of potency against wild type PAR1 (InsP) (PAR1 S309P mutant) did it give?
Its loss of potency against wild type PAR1 (InsP) is 17 fold.

And the EC50, aggregation of murine platelets by thrombin (murine PAR4)?
Its EC50, aggregation of murine platelets by thrombin is 0.6 nM.

B1: MC4pal-14 (Pal-TGAIRQGANMKGAI) (peptide)
peptide: Palmitoyl-TGAIRQGANMKGAI-NH2
SMILES: CCCCCCCCCCCCCCCC(=O)N[C@H](C(=O)NCC(=O)N[C@@H](C)C(=O)N[C@H](C(=O)N[C@@H](CCCNC(=N)N)C(=O)N[C@@H](CCC(N)=O)C(=O)NCC(=O)N[C@@H](C)C(=O)N[C@@H](CC(N)=O)C(=O)N[C@@H](CCSC)C(=O)N[C@@H](CCCCN)C(=O)NCC(=O)N[C@@H](C)C(=O)N[C@H](C(N)=O)[C@@H](C)CC)[C@@H](C)CC)[C@@H](C)O
What does the source list for B1?
EC50, activating phase (adenylate cyclase) (MC4 receptor (MC4R)): ~150 nM; IC50, inhibitory phase (adenylate cyclase) (MC4 receptor (MC4R)): ~10000 nM; adenylate cyclase activity relative to alpha-MSH (MC4 receptor (MC4R)): 40%

B2: P1pal-19Q (Pal-RCLSSSAVANQSQQSQALF) (peptide)
peptide: Palmitoyl-RCLSSSAVANQSQQSQALF-NH2
SMILES: CCCCCCCCCCCCCCCC(=O)N[C@@H](CCCNC(=N)N)C(=O)N[C@@H](CS)C(=O)N[C@@H](CC(C)C)C(=O)N[C@@H](CO)C(=O)N[C@@H](CO)C(=O)N[C@@H](CO)C(=O)N[C@@H](C)C(=O)N[C@H](C(=O)N[C@@H](C)C(=O)N[C@@H](CC(N)=O)C(=O)N[C@@H](CCC(N)=O)C(=O)N[C@@H](CO)C(=O)N[C@@H](CCC(N)=O)C(=O)N[C@@H](CCC(N)=O)C(=O)N[C@@H](CO)C(=O)N[C@@H](CCC(N)=O)C(=O)N[C@@H](C)C(=O)N[C@@H](CC(C)C)C(=O)N[C@@H](Cc1ccccc1)C(N)=O)C(C)C
Which results are given for B2?
loss in efficacy, platelet aggregation or InsP in PAR1-Rat1 cells (human PAR1 [1]): 2 fold; Agonist EC50 (activating phase, InsP formation) (human PAR1 [2]): 650 nM; Agonist Efficacy (% of full response to extracellular agonist) (human PAR1 [2]): 46%; Agonist IC50 (inhibitory phase, InsP formation) (human PAR1 [2]): 30000 nM

B3: S2pal-23F (Pal-KVRSSGIRVGSSKRKKSEKKVTF) (peptide)
peptide: Palmitoyl-KVRSSGIRVGSSKRKKSEKKVTF-NH2
SMILES: CCCCCCCCCCCCCCCC(=O)N[C@@H](CCCCN)C(=O)N[C@H](C(=O)N[C@@H](CCCNC(=N)N)C(=O)N[C@@H](CO)C(=O)N[C@@H](CO)C(=O)NCC(=O)N[C@H](C(=O)N[C@@H](CCCNC(=N)N)C(=O)N[C@H](C(=O)NCC(=O)N[C@@H](CO)C(=O)N[C@@H](CO)C(=O)N[C@@H](CCCCN)C(=O)N[C@@H](CCCNC(=N)N)C(=O)N[C@@H](CCCCN)C(=O)N[C@@H](CCCCN)C(=O)N[C@@H](CO)C(=O)N[C@@H](CCC(=O)O)C(=O)N[C@@H](CCCCN)C(=O)N[C@@H](CCCCN)C(=O)N[C@H](C(=O)N[C@H](C(=O)N[C@@H](Cc1ccccc1)C(N)=O)[C@@H](C)O)C(C)C)C(C)C)[C@@H](C)CC)C(C)C
With B3 as the molecule, how does the “Agonist EC50 (activating phase, InsP formation)” value [3] read?
Its value is 100 nM.

What about the “Agonist Efficacy (% of full response to extracellular agonist)” value [3] of the same molecule?
The value was 15%.

What about the “Agonist IC50 (inhibitory phase, InsP formation)” value [3] of the same molecule?
Its value is 500 nM.

What about the “Antagonist IC50 (InsP formation, against 1 µM …)” value [3] of the same molecule?
Its value is 3000 nM.

B4: P4pal-15 (Pal-HTLAASGRRYGHALR) (peptide)
peptide: Palmitoyl-HTLAASGRRYGHALR-NH2
SMILES: CCCCCCCCCCCCCCCC(=O)N[C@@H](Cc1c[nH]cn1)C(=O)N[C@H](C(=O)N[C@@H](CC(C)C)C(=O)N[C@@H](C)C(=O)N[C@@H](C)C(=O)N[C@@H](CO)C(=O)NCC(=O)N[C@@H](CCCNC(=N)N)C(=O)N[C@@H](CCCNC(=N)N)C(=O)N[C@@H](Cc1ccc(O)cc1)C(=O)NCC(=O)N[C@@H](Cc1c[nH]cn1)C(=O)N[C@@H](C)C(=O)N[C@@H](CC(C)C)C(=O)N[C@@H](CCCNC(=N)N)C(N)=O)[C@@H](C)O
Which results are given for B4?
IC50, inhibition of platelet aggregation to 200 micromolar AYPGKF (human PAR4 [4]): 600 nM; Antagonist IC50 (InsP formation, against 10 nM thrombin) (human PAR4 [5]): 3000 nM

B5: S2pal-23 (Pal-KVKSSGIRVGSSKRKKSEKKVTK) (peptide)
peptide: Palmitoyl-KVKSSGIRVGSSKRKKSEKKVTK-NH2
SMILES: CCCCCCCCCCCCCCCC(=O)N[C@@H](CCCCN)C(=O)N[C@H](C(=O)N[C@@H](CCCCN)C(=O)N[C@@H](CO)C(=O)N[C@@H](CO)C(=O)NCC(=O)N[C@H](C(=O)N[C@@H](CCCNC(=N)N)C(=O)N[C@H](C(=O)NCC(=O)N[C@@H](CO)C(=O)N[C@@H](CO)C(=O)N[C@@H](CCCCN)C(=O)N[C@@H](CCCNC(=N)N)C(=O)N[C@@H](CCCCN)C(=O)N[C@@H](CCCCN)C(=O)N[C@@H](CO)C(=O)N[C@@H](CCC(=O)O)C(=O)N[C@@H](CCCCN)C(=O)N[C@@H](CCCCN)C(=O)N[C@H](C(=O)N[C@H](C(=O)N[C@@H](CCCCN)C(N)=O)[C@@H](C)O)C(C)C)C(C)C)[C@@H](C)CC)C(C)C
Which “Antagonist IC50 (InsP formation, against 1 µM …)” value [3] does the source give for B5 here?
Its value is 2000 nM.

B6: P4pal-15F (Pal-HTLAASGRRYGHALF) (peptide)
peptide: Palmitoyl-HTLAASGRRYGHALF-NH2
SMILES: CCCCCCCCCCCCCCCC(=O)N[C@@H](Cc1c[nH]cn1)C(=O)N[C@H](C(=O)N[C@@H](CC(C)C)C(=O)N[C@@H](C)C(=O)N[C@@H](C)C(=O)N[C@@H](CO)C(=O)NCC(=O)N[C@@H](CCCNC(=N)N)C(=O)N[C@@H](CCCNC(=N)N)C(=O)N[C@@H](Cc1ccc(O)cc1)C(=O)NCC(=O)N[C@@H](Cc1c[nH]cn1)C(=O)N[C@@H](C)C(=O)N[C@@H](CC(C)C)C(=O)N[C@@H](Cc1ccccc1)C(N)=O)[C@@H](C)O
For B6, which “Antagonist IC50 (InsP formation, against 10 nM thrombin)” value (human PAR4 [5]) is on record?
The value was greater than 2000 nM.

B7: Apal-19F (Pal-RIRSNSSAANLMAKKRVIEF) (peptide)
peptide: Palmitoyl-RIRSNSSAANLMAKKRVIEF-NH2
SMILES: CCCCCCCCCCCCCCCC(=O)N[C@@H](CCCNC(=N)N)C(=O)N[C@H](C(=O)N[C@@H](CCCNC(=N)N)C(=O)N[C@@H](CO)C(=O)N[C@@H](CC(N)=O)C(=O)N[C@@H](CO)C(=O)N[C@@H](CO)C(=O)N[C@@H](C)C(=O)N[C@@H](C)C(=O)N[C@@H](CC(N)=O)C(=O)N[C@@H](CC(C)C)C(=O)N[C@@H](CCSC)C(=O)N[C@@H](C)C(=O)N[C@@H](CCCCN)C(=O)N[C@@H](CCCCN)C(=O)N[C@@H](CCCNC(=N)N)C(=O)N[C@H](C(=O)N[C@H](C(=O)N[C@@H](CCC(=O)O)C(=O)N[C@@H](Cc1ccccc1)C(N)=O)[C@@H](C)CC)C(C)C)[C@@H](C)CC
Which results are given for B7?
Agonist EC50 (activating phase, InsP formation) [6]: 200 nM; Agonist Efficacy (% of full response to 300 nM CCK-8) [6]: < 10%; Agonist IC50 (inhibitory phase, InsP formation) [6]: 2000 nM

B8: P4pal-10 (Pal-SGRRYGHALR) (peptide)
peptide: Palmitoyl-SGRRYGHALR-NH2
SMILES: CCCCCCCCCCCCCCCC(=O)N[C@@H](CO)C(=O)NCC(=O)N[C@@H](CCCNC(=N)N)C(=O)N[C@@H](CCCNC(=N)N)C(=O)N[C@@H](Cc1ccc(O)cc1)C(=O)NCC(=O)N[C@@H](Cc1c[nH]cn1)C(=O)N[C@@H](C)C(=O)N[C@@H](CC(C)C)C(=O)N[C@@H](CCCNC(=N)N)C(N)=O
Which “IC50, inhibition of platelet aggregation to AYPGKF” value (human PAR4 [4]) does the source give for B8 here?
The value was 500 to 1000 nM.

And the “inhibition of the rate of murine platelet aggregation to 3 nM thrombin, 3 µM pepducin” value (murine PAR4)?
The value was 7 fold.
